# Reference: PMC9482650, “Quantitative fragmentomics allow affinity mapping of interactomes” (Nature Communications, 2022)
# T1: APBA1_1, Q02410
# T1 sequence (Q02410 651-752, limits assumed, looked up): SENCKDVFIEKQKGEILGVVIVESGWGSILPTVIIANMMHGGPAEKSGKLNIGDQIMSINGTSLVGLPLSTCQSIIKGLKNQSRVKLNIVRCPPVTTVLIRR
# T2: APBA1_2, Q02410
# T2 sequence (Q02410 742-832, limits assumed, looked up): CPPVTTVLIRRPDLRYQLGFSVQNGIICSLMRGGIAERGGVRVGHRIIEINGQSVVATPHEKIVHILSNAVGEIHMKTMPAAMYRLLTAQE
# T3: ARHGAP21, Q5T5U3
# T3 sequence (Q5T5U3 45-169, limits assumed, looked up): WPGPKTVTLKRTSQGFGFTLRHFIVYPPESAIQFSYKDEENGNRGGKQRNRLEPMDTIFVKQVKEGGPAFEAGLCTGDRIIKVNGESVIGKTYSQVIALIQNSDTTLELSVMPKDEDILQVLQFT
# T4: DLG3_3, Q92796
# T4 sequence (Q92796 374-475, limits assumed, looked up): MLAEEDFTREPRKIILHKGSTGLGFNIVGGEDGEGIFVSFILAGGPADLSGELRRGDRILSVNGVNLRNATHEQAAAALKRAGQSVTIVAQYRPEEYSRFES
# T5: GRIP1_7, Q9Y3R0
# T5 sequence (Q9Y3R0 999-1096, limits assumed, looked up): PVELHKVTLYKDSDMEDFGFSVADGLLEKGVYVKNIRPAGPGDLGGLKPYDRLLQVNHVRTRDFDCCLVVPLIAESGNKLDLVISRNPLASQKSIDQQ
# T6: HTRA4, P83105
# T6 sequence (P83105 378-476, limits assumed, looked up): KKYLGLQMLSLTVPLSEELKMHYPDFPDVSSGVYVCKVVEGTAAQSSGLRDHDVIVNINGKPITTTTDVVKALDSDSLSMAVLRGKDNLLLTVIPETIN
# T7: LIN7A, O14910
# T7 sequence (O14910 103-200, limits assumed, looked up): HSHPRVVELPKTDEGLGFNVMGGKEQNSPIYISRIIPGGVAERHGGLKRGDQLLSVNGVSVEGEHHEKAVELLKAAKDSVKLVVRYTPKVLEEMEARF
# T8: LNX2_2, Q8N448
# T8 sequence (Q8N448 334-432, limits assumed, looked up): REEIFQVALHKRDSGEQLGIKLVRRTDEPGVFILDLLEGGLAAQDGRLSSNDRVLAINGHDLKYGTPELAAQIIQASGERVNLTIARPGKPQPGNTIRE
# T9: MPP6, Q9NZW5
# T9 sequence (Q9NZW5 125-219, limits assumed, looked up): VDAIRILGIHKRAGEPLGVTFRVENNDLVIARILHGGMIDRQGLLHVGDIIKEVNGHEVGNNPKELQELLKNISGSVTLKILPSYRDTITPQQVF
# T10: RAPGEF6, Q8TEU7
# T10 sequence (Q8TEU7 525-625, limits assumed, looked up): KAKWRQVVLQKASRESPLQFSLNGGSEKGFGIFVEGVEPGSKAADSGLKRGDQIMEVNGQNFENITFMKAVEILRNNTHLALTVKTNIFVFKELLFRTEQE
# T11: SNTB1, Q13884
# T11 sequence (Q13884 107-205, limits assumed, looked up): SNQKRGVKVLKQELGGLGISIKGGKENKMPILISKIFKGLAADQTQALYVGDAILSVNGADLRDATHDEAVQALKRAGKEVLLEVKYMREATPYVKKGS
# T12: TJP3_3, O95049
# T12 sequence (O95049 375-456, limits assumed, looked up): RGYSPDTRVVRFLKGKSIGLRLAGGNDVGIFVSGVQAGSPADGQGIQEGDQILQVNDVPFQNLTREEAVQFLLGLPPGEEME
# B1: CLDN9, O95484 (peptide)
# chain: ASGLDKRDYV
# Molecular target: T1, APBA1_1, Q02410
# Experiment: holdup assay
# Design: key: below the threshold = too weak to quantify, mostly under pKd 3.1 to 4
# Details: plain residues with an end cap or a label only (N-terminal biotin on a linker: ado-ado)
row,pKd,Binder
1,below the threshold,B1

# Molecular target: T2, APBA1_2, Q02410
# Experiment: holdup assay
# Design: key: below the threshold = too weak to quantify, mostly under pKd 3.1 to 4
# Details: plain residues with an end cap or a label only (N-terminal biotin on a linker: ado-ado)
row,pKd,Binder
1,4.35,B1

# Molecular target: T3, ARHGAP21, Q5T5U3
# Experiment: holdup assay
# Design: key: below the threshold = too weak to quantify, mostly under pKd 3.1 to 4
# Details: plain residues with an end cap or a label only (N-terminal biotin on a linker: ado-ado)
row,pKd,Binder
1,below the threshold,B1

# Molecular target: T4, DLG3_3, Q92796
# Experiment: holdup assay
# Design: key: below the threshold = too weak to quantify, mostly under pKd 3.1 to 4
# Details: plain residues with an end cap or a label only (N-terminal biotin on a linker: ado-ado)
row,pKd,Binder
1,below the threshold,B1

# Molecular target: DLG4_1, P78352
# Sequence (P78352 62-152): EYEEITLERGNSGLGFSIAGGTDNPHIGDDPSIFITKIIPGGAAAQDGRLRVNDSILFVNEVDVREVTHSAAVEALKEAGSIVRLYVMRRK
# Experiment: holdup assay
# Design: key: below the threshold = too weak to quantify, mostly under pKd 3.1 to 4
# Details: plain residues with an end cap or a label only (N-terminal biotin on a linker: ado-ado)
row,pKd,Binder
1,below the threshold,B1

# Molecular target: GRASP, Q7Z6J2
# Sequence (Q7Z6J2 96-193): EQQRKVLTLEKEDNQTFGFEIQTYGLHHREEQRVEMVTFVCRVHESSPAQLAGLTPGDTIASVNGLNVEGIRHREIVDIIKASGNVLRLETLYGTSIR
# Experiment: holdup assay
# Design: key: below the threshold = too weak to quantify, mostly under pKd 3.1 to 4
# Details: plain residues with an end cap or a label only (N-terminal biotin on a linker: ado-ado)
row,pKd,Binder
1,below the threshold,B1

# Molecular target: GRID2IP_1, A4D2P6
# Sequence (A4D2P6 1-87): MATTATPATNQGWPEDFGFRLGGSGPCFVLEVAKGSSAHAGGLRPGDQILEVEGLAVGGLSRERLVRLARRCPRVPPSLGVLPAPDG
# Experiment: holdup assay
# Design: key: below the threshold = too weak to quantify, mostly under pKd 3.1 to 4
# Details: plain residues with an end cap or a label only (N-terminal biotin on a linker: ado-ado)
row,pKd,Binder
1,below the threshold,B1

# Molecular target: T5, GRIP1_7, Q9Y3R0
# Experiment: holdup assay
# Design: key: below the threshold = too weak to quantify, mostly under pKd 3.1 to 4
# Details: plain residues with an end cap or a label only (N-terminal biotin on a linker: ado-ado)
row,pKd,Binder
1,below the threshold,B1

# Molecular target: T6, HTRA4, P83105
# Experiment: holdup assay
# Design: key: below the threshold = too weak to quantify, mostly under pKd 3.1 to 4
# Details: plain residues with an end cap or a label only (N-terminal biotin on a linker: ado-ado)
row,pKd,Binder
1,below the threshold,B1

# Molecular target: Inadl_2, Q8NI35
# Sequence (Q8NI35 238-335): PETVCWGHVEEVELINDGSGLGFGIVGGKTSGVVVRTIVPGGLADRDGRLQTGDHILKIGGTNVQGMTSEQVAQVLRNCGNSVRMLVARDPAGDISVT
# Experiment: holdup assay
# Design: key: below the threshold = too weak to quantify, mostly under pKd 3.1 to 4
# Details: plain residues with an end cap or a label only (N-terminal biotin on a linker: ado-ado)
row,pKd,Binder
1,below the threshold,B1

# Molecular target: Inadl_9, Q8NI35
# Sequence (Q8NI35 1530-1615): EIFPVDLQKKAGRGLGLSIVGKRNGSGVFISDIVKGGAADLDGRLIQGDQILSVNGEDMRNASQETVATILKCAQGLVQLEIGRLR
# Experiment: holdup assay
# Design: key: below the threshold = too weak to quantify, mostly under pKd 3.1 to 4
# Details: plain residues with an end cap or a label only (N-terminal biotin on a linker: ado-ado)
row,pKd,Binder
1,3.51,B1

# Molecular target: T7, LIN7A, O14910
# Experiment: holdup assay
# Design: key: below the threshold = too weak to quantify, mostly under pKd 3.1 to 4
# Details: plain residues with an end cap or a label only (N-terminal biotin on a linker: ado-ado)
row,pKd,Binder
1,below the threshold,B1

# Molecular target: T8, LNX2_2, Q8N448
# Experiment: holdup assay
# Design: key: below the threshold = too weak to quantify, mostly under pKd 3.1 to 4
# Details: plain residues with an end cap or a label only (N-terminal biotin on a linker: ado-ado)
row,pKd,Binder
1,3.92,B1

# Molecular target: MAGI1_1, Q96QZ7
# Sequence (Q96QZ7 1-106): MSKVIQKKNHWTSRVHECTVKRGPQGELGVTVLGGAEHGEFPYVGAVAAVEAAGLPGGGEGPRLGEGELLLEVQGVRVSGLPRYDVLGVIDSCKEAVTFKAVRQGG
# Experiment: holdup assay
# Design: key: below the threshold = too weak to quantify, mostly under pKd 3.1 to 4
# Details: plain residues with an end cap or a label only (N-terminal biotin on a linker: ado-ado)
row,pKd,Binder
1,below the threshold,B1

# Molecular target: T9, MPP6, Q9NZW5
# Experiment: holdup assay
# Design: key: below the threshold = too weak to quantify, mostly under pKd 3.1 to 4
# Details: plain residues with an end cap or a label only (N-terminal biotin on a linker: ado-ado)
row,pKd,Binder
1,3.69,B1

# Molecular target: NHERF2_2, Q15599
# Sequence (Q15599 142-238): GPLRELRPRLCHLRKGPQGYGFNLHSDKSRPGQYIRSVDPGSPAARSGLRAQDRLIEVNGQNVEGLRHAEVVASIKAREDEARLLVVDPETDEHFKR
# Experiment: holdup assay
# Design: key: below the threshold = too weak to quantify, mostly under pKd 3.1 to 4
# Details: plain residues with an end cap or a label only (N-terminal biotin on a linker: ado-ado)
row,pKd,Binder
1,below the threshold,B1

# Molecular target: NHERF4_1, Q86UT5-2
# Sequence (Q86UT5 other isoform, or with tags, fused parts or gaps): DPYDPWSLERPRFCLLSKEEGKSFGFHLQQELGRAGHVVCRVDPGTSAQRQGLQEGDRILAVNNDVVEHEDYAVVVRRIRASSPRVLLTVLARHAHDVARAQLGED
# Experiment: holdup assay
# Design: key: below the threshold = too weak to quantify, mostly under pKd 3.1 to 4
# Details: plain residues with an end cap or a label only (N-terminal biotin on a linker: ado-ado)
row,pKd,Binder
1,below the threshold,B1

# Molecular target: NHERF4_4, Q86UT5
# Sequence (Q86UT5 464-550): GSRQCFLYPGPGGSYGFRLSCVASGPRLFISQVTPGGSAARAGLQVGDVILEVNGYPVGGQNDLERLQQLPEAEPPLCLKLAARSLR
# Experiment: holdup assay
# Design: key: below the threshold = too weak to quantify, mostly under pKd 3.1 to 4
# Details: plain residues with an end cap or a label only (N-terminal biotin on a linker: ado-ado)
row,pKd,Binder
1,below the threshold,B1

# Molecular target: NOS1, P29475
# Sequence (P29475 9-101): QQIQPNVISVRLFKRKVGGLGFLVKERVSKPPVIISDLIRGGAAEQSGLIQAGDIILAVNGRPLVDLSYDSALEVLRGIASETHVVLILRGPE
# Experiment: holdup assay
# Design: key: below the threshold = too weak to quantify, mostly under pKd 3.1 to 4
# Details: plain residues with an end cap or a label only (N-terminal biotin on a linker: ado-ado)
row,pKd,Binder
1,4.22,B1

# Molecular target: PICK1, Q9NRD5
# Sequence (Q9NRD5 17-115): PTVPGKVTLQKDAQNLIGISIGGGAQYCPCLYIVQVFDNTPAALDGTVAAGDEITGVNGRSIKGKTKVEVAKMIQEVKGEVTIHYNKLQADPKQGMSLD
# Experiment: holdup assay
# Design: key: below the threshold = too weak to quantify, mostly under pKd 3.1 to 4
# Details: plain residues with an end cap or a label only (N-terminal biotin on a linker: ado-ado)
row,pKd,Binder
1,below the threshold,B1

# Molecular target: T10, RAPGEF6, Q8TEU7
# Experiment: holdup assay
# Design: key: below the threshold = too weak to quantify, mostly under pKd 3.1 to 4
# Details: plain residues with an end cap or a label only (N-terminal biotin on a linker: ado-ado)
row,pKd,Binder
1,below the threshold,B1

# Molecular target: T11, SNTB1, Q13884
# Experiment: holdup assay
# Design: key: below the threshold = too weak to quantify, mostly under pKd 3.1 to 4
# Details: plain residues with an end cap or a label only (N-terminal biotin on a linker: ado-ado)
row,pKd,Binder
1,below the threshold,B1

# Molecular target: TJP1_3, Q07157
# Sequence (Q07157 416-512): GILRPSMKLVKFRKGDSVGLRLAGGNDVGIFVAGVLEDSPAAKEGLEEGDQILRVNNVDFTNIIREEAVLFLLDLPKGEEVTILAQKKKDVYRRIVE
# Experiment: holdup assay
# Design: key: below the threshold = too weak to quantify, mostly under pKd 3.1 to 4
# Details: plain residues with an end cap or a label only (N-terminal biotin on a linker: ado-ado)
row,pKd,Binder
1,below the threshold,B1

# Molecular target: TJP2_1, Q9UDY2
# Sequence (Q9UDY2 24-128): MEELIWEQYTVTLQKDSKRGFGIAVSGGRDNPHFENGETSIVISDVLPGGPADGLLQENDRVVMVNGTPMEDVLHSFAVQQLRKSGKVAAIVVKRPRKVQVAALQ
# Experiment: holdup assay
# Design: key: below the threshold = too weak to quantify, mostly under pKd 3.1 to 4
# Details: plain residues with an end cap or a label only (N-terminal biotin on a linker: ado-ado)
row,pKd,Binder
1,below the threshold,B1

# Molecular target: T12, TJP3_3, O95049
# Experiment: holdup assay
# Design: key: below the threshold = too weak to quantify, mostly under pKd 3.1 to 4
# Details: plain residues with an end cap or a label only (N-terminal biotin on a linker: ado-ado)
row,pKd,Binder
1,3.65,B1
